Measurements published in US9205136B2, “Human aminoacyl-tRNA synthetase polypeptides useful for the regulation of angiogenesis” (THE SCRIPPS RESEARCH INSTITUTE, priority 2000, dated 2015).
“Also recorded” adds a separate entry of the source.

B1: TyrRS carboxyl-terminal domain: residues 359-528 of full-length TyrRS (protein)
chain: MPEEVIPSRLDIRVGKIITVEKHPDADSLYVEKIDVGEAEPRTVVSGLVQFVPKEELQDRLVVVLCNLKPQKMRGVESQGMLLCASIEGINRQVEPLDPPAGSAPGEHVFVKGYEKGQPDEELKPKKKVFEKLQADFKISEECIAQWKQTNFMTKLGSISCKSLKGGNISLEHHHHHH
modifications: His6 tag; Human TyrRS carboxyl-terminal domain in pET20B
notes: residues 359-528 of full-length TyrRS
B2: full-length TyrRS: recombinant human tyrosyl-tRNA synthetase, 528 amino acid residues, C-terminal His6 tag (protein)
chain: MGDAPSPEEKLHLITRNLQEVLGEEKLKEILKERELKIYWGTATTGKPHVAYFVPMSKIADFLKAGCEVTILFADLHAYLDNMKAPWELLELRVSYYENVIKAMLESIGVPLEKLKFIKGTDYQLSKEYTLDVYRLSSVVTQHDSKKAGAEVVKQVEHPLLSGLLYPGLQALDEEYLKVDAQFGGIDQRKIFTFAEKYLPALGYSKRVHLMNPMVPGLTGSKMSSSEEESKIDLLDRKEDVKKKLKKAFCEPGNVENNGVLSFIKHVLFPLKSEFVILRDEKWGGNKTYTAYVDLEKDFAAEVVHPGDLKNSVEVALNKLLDPIREKFNTPALKKLASAAYPDPSKQKPMAKGPAKNSEPEEVIPSRLDIRVGKIITVEKHPDADSLYVEKIDVGEAEPRTVVSGLVQFVPKEELQDRLVVVLCNLKPQKMRGVESQGMLLCASIEGINRQVEPLDPPAGSAPGEHVFVKGYEKGQPDEELKPKKKVFEKLQADFKISEECIAQWKQTNFMTKLGSISCKSLKGGNISLEHHHHHH
modifications: C-terminal His6 tag; Human full-length TyrRS in pET20B
notes: recombinant human tyrosyl-tRNA synthetase, 528 amino acid residues, C-terminal His6 tag
B3: E. coli TyrRS: E. coli tyrosyl-tRNA synthetase, similar in size to human mini TyrRS (protein)
chain: MASSNLIKQLQERGLVAQVTDEEALAERLAQGPIALYCGFDPTADSLHLGHLVPLLCLKRFQQAGHKPVALVGGATGLIGDPSFKAAERKLNTEETVQEWVDKIRKQVAPFLDFDCGENSAIAANNYDWFGNMNVLTFLRDIGKHFSVNQMINKEAVKQRLNREDQGISFTEFSYNLLQGYDFACLNKQYGVVLQIGGSDQWGNITSGIDLTRRLHQNQVFGLTVPLITKADGTKFGKTEGGAVWLDPKKTSPYKFYQFWINTADADVYRFLKFFTFMSIEEINALEEEDKNSGKAPRAQYVLAEQVTRLVHGEEGLQAAKRITECLFSGSLSALSEADFEQLAQDGVPMVEMEKGADLMQALVDSELQPSRGQARKTIASNAITINGEKQSDPEYFFKEEDRLFGRFTLLRRGKKNYCLICWK

What was measured:
PMNs [1] = test: PMN release of myeloperoxidase; assay type: cell-based, human; conditions: 1 nM sample protein, 60 minutes
Experimental: (§1) Cells for the various cytokine assays described were prepared from acid citrate dextrose-treated blood of normal healthy volunteers. Human PMNs were isolated from the blood by centrifugation (700×g) over Histopaque 1077 and 1119 (Sigma). […] This procedure was repeated twice. Human MPs were isolated by centrifugation on Histopaque 1077 (Sigma). The mononuclear fraction was obtained, washed twice in Hanks' balanced salt solution, resuspended in RPMI-1640 medium (Sigma) containing 10% heat-inactivated fetal bovine serum (Sigma), plated in tissue culture flasks, and incubated in a 6% CO2 incubator at 37° C. for 1-2 hours (Kumagai et al., 1979, J. Immunol. Methods 29:17-25). Nonadherent cells were removed by washing the flasks three times with Hanks' balanced salt solution, and adherent cells were harvested by incubation with calcium-magnesium free phosphate-buffered saline containing 2 mM EDTA for 15 minutes at 4° C., followed by extensive washing.
PMN release of myeloperoxidase was examined following incubation of 3×10^6 PMNs per mL with 1 nM of sample protein for 60 minutes. The generation of peroxidase was then measured by the reduction of 3,3′,5,5′-tetramethylbenzidine (Barker et al., 1982, FEBS Lett. 150:419-23). Peroxidase activity is shown in FIG. 3 as the percent of total peroxidase activity where 100% peroxidase activity is defined as the activity observed for 3×10^6 PMNs following exposure to 10 μM phorbol ester for 60 minutes. Each determination shown in FIG. 3 represents the mean of four measurements from at least three independent experiments.

PMNs [2] = test: PMN chemotaxis assay (ChemoTX microchemotaxis chamber); assay type: cell-based, human; conditions: for PMN chemotaxis (PMN migration): sample proteins 1 nM, 45 min
Experimental: as §1
PMN chemotaxis assays were performed in a ChemoTX microchemotaxis chamber (described herein). Sample proteins (1 nM) were added to the lower compartment of chemotaxis chambers, and 10^4 PMNs were added to the upper compartment. Chambers were incubated for 45 min, and migrating cells were counted in HPFs. Each determination shown in FIG. 2 represents the average of nine HPF measurements.

MPs [3] = test: MP TNFα production (ELISA of culture supernatant); assay type: cell-based, human; conditions: 1 nM sample protein, 14 hours
Experimental: as §1
MP TNFα production was examined following incubation of 10^5 MPs with 1 nM of sample protein for 14 hours. Aliquots of the culture supernatant were then assayed for TNFα production using a TNFα enzyme-linked immunosorbent assay kit (Sigma). Each determination shown in FIG. 2 represents the mean of four measurements from at least three independent experiments.

MPs [4] = test: MP tissue factor production (Factor VIIa-dependent Factor Xa formation); assay type: cell-based, human; conditions: 1 nM sample protein, 4 hours
Experimental: as §1
MP tissue factor production was examined following incubation of 10^4 MPs with 1 nM of sample protein for 4 hours. Tissue factor activity was then inferred from measurements of Factor VIIa-dependent Factor Xa formation (Wolfson et al., 1990 J. Chromatogr., 503:277-81). Each determination shown in FIG. 2 represents the mean of four measurements from at least three independent experiments.

PMNs [5] = test: 125I-human mini TyrRS binding and competition assay on PMNs; conditions: 10 nM 125I-mini TyrRS, 200-fold molar excess of unlabeled ligand, on ice 2 hours
Experimental: The interaction of human mini TyrRS and PMNs was examined in binding studies using radioiodinated TyrRS molecules (Moser et al., 1993, J. Biol. Chem. 268:7125-28). Custom radioiodination of mini TyrRS with was performed by Research & Diagnostic Antibody (Richmond, Calif.). In the binding assays, 2×10^6 PMNs were first suspended in 120 μl of RPMI-1640 medium containing 20 mM Hepes (pH 7.4) and 10 mg/ml bovine serum albumin. […] Following incubation, cells were separated from unbound radioactivity by centrifugation at approximately 8000×g for 2 minutes through 500 μL, of a 10% sucrose/phosphate-buffered saline (PBS) cushion. The supernatant was aspirated, and the cell sediment was resuspended using EcoLite (ICN Biomedicals, Irvine, Calif.) and analyzed in a scintillation counter.
Following incubation, cells were separated from unbound radioactivity as described herein.

MPs [6] = test: MP chemotaxis assay (ChemoTX microchemotaxis chamber); assay type: cell-based, human; conditions: sample proteins 1 nM, 3 hours
Experimental: as §1
MP chemotaxis assays were performed in a ChemoTX microchemotaxis chamber (Neuro Probe, Gaithersburg, Md.) containing polycarbonate filters (5 μm pores) with polyvinylpyrrolidone (PVP). MPs were suspended in RPMI-1640 medium containing 1% heat-inactivated fetal bovine serum, and 10^4 cells were added to the upper chamber. Sample proteins (1 nM) were added to the lower compartment of chemotaxis chambers, and the chambers were incubated for 3 hours. After incubation, nonmigrating cells were removed, membranes were fixed in methanol, and migrating cells were visualized with the HEMACOLOR™ stain set (EM Diagnostic Systems, Gibbstown, N.J.). Migrating cells were counted in high-power fields (HPFs). Each determination shown in FIG. 2 represents the average of nine HPF measurements.

[7] = test system: human umbilical vein endothelial cells (HUVECs); test: HUVEC migration assay (modified Boyden chamber); assay type: cell-based; conditions: 50 nM TyrRS molecule or 0.5 nM VEGF165, 6 hours
Experimental: In contrast, α-chemokines lacking the ELR motif act as angiostatic factors (id.). In order to evaluate the angiogenic activity of TyrRS, which contains the ELR motif, human full-length TyrRS and human mini TyrRS were first examined for their ability to induce endothelial cell migration. Such angiogenic assays were performed using human umbilical vein endothelial cells (HUVECs) (Clonetics, Walkersville, Md.). Cells were maintained in EGM-2® BULLETKIT® medium (Clonetics) in an atmosphere of 6% CO2 at 37° C. according to the supplier's instructions.
Cell migration assays were performed using the modified Boyden chamber (6.5 mm Transwells) with polycarbonate membranes (8.0 μm pore size) (Costar Corp., Cambridge, Mass.) (Masood et al., 1999, Blood 93:1038-44). Wells were coated overnight with 25 μg/mL human fibronectin (Biosource International, Camarillo, Calif.) in PBS and then allowed to air-dry. HUVECs were suspended in Dulbecco's modified Eagle's medium (DMEM) (Gibco-BRL, Gaithersburg, Md.) containing 0.1% BSA (Sigma) and 2×10^5 cells per well were added to the upper chamber. The chemotactic stimulus (50 nM of a given TyrRS molecule or 0.5 nM of human vascular endothelial growth factor-165 (VEGF165) (Biosource International, Camarillo, Calif.)) was placed in the lower chamber, and the cells were allowed to migrate for 6 hours at 37° C. in a 6% CO2 incubator. After incubation, non-migrant cells were removed from the upper face of the Transwell membrane with a cotton swab and migrant cells, those attached to the lower face, were fixed in methanol and visualized with the HEMACOLOR® stain set (EM Diagnostic Systems, Gibbstown, N.J.). Migrating cells were counted in high-power fields (HPFs). HUVECs were suspended in media with the inhibitor for 30 minutes before placement in the chamber. Each determination shown in FIG. 16 represents the average of nine HPF measurements.

inhibition of 125I-mini TyrRS binding to PMNs by unlabeled ligand (PMNs [5])	Molecule	PMN release of myeloperoxidase (PMNs [1])	concentration dependence of PMN migration (PMNs [2])	PMN chemotaxis (PMN migration) (PMNs [2])	MP TNFα production (MPs [3])	MP tissue factor production (MPs [4])	MP chemotaxis (MP migration) (MPs [6])	HUVEC chemotaxis [7]
did not inhibit the binding	B2	none of the properties observed for the carboxyl-terminal domain	–	none of the properties observed for the carboxyl-terminal domain	none of the properties observed for the carboxyl-terminal domain	none of the properties observed for the carboxyl-terminal domain	no chemotaxis was observed	no chemotaxis was observed
did not inhibit the binding	B3	inactive in all of the assays	–	inactive in all of the assays; also recorded: no chemotaxis was observed	inactive in all of the assays	inactive in all of the assays	inactive in all of the assays	–

Molecule	inhibition of 125I-mini TyrRS binding to PMNs by unlabeled ligand (PMNs [5])	PMN release of myeloperoxidase (PMNs [1])	concentration dependence of PMN migration (PMNs [2])	PMN chemotaxis (PMN migration) (PMNs [2])	MP TNFα production (MPs [3])	MP tissue factor production (MPs [4])	MP chemotaxis (MP migration) (MPs [6])	HUVEC chemotaxis [7]
B1	neither the TyrRS carboxyl-terminal domain nor EMAP II inhibited	induced the release of myeloperoxidase in PMNs	bell-shaped concentration dependence	induced PMN migration	stimulated production	stimulated production	induced MP migration to an extent comparable with that observed for EMAP II	–
